Source: publication PMC314469, “Protein Interaction Networks by Proteome Peptide Scanning” (PLoS Biology, 2004)

T1: Myo5 SH3 (MYO5_YEAST), Q04439
T1 chain: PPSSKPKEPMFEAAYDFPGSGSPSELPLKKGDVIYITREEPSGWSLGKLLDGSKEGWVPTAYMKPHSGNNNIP

B1: YLR149C 637-650 (peptide)
chain: FESFLRPPSTPDLP
B2: YLR454W 1338-1351 (peptide)
chain: ELRTLFVPLIPSVT
B3: YPL176C 44-57 (peptide)
chain: EEMGMEEPQAPEAF
B4: YGL003C 167-180 (peptide)
chain: EFSPHSTPVTPRRL
B5: YLR073C 184-197 (peptide)
chain: EAYRLNYPELPRLT
B6: YDR159W 429-442 (peptide)
chain: FFQLMQSPSLPLLM
B7: YNR028W 128-141 (peptide)
chain: EETEMLAPKLPEEN
B8: YGR154C 125-138 (peptide)
chain: ELYYLNDPKYPGTK
B9: YPL190C 573-586 (peptide)
chain: GAPPLPVPNGPAVG
B10: YKR038C 231-244 (peptide)
chain: FARTLKIPNEPSPG
B11: YLR198C 23-36 (peptide)
chain: FPFYLSFPFSPSFP
B12: YGR293C 121-134 (peptide)
chain: FLTVYILPKNPFRV
B13: YMR313C 491-504 (peptide)
chain: EPEPLMSPVPPSSA
B14: YGR018C 23-36 (peptide)
chain: FWKIHLSPPLPSFK
B15: YER141W 445-458 (peptide)
chain: FASQLRKPRAPMRN
B16: YHR033W 57-70 (peptide)
chain: GLDALNIPHKPKQL
B17: YOR267C 107-120 (peptide)
chain: GLHDYTSPASPKQT
B18: YLR193C 22-35 (peptide)
chain: FFNRYPNPYSPHVL
B19: YDR451C 287-300 (peptide)
chain: FEDHHITPSKPGGQ
B20: YHL005C 61-74 (peptide)
chain: FLALFSDPARPFLT
B21: YDL172C 53-66 (peptide)
chain: GEIMFPAPPLPIAN
B22: YGR154C 63-76 (peptide)
chain: GARFLPAPHRPEKY
B23: YML005W 159-172 (peptide)
chain: ELLSFLSPGKPSKG
B24: YER171W 720-733 (peptide)
chain: FLRTMAQPTDPKDQ
B25: YER032W 46-59 (peptide)
chain: FFPIMSLPVTPVKS
B26: YJR031C 942-955 (peptide)
chain: FENLLMEPNLPFFT
B27: YLR244C 297-310 (peptide)
chain: GEFFHSSPNIPHYA
B28: YHR199C 84-97 (peptide)
chain: FPKKMGPPQWPFST
B29: YBL088C 1519-1532 (peptide)
chain: FEMVFRHPEQPHMI
B30: YPR184W 1320-1333 (peptide)
chain: FEKRYYVPEDPSQD
B31: YKR079C 211-224 (peptide)
chain: EAIKLGVPKGPLFA
B32: YDR422C 770-783 (peptide)
chain: FLSRYPVPDLPIYL
B33: YIL173W 521-534 (peptide)
chain: GEYDLIMPIYPYRL
B34: YHR111W 74-87 (peptide)
chain: GAGGLGSPALPYLA
B35: YJL029C 360-373 (peptide)
chain: FLSYMSEPKYPSNE
B36: YER003C 399-412 (peptide)
chain: GFVFFIAPHLPVDL
B37: YKR041W 168-181 (peptide)
chain: EPATLPLPGTPTLA
B38: YLR308W 63-76 (peptide)
chain: EWPGLDPPYIPLDF
B39: YBL029C-A 44-57 (peptide)
chain: FFTIWFIPLVPVFW
B40: YLR131C 69-82 (peptide)
chain: ELRDLDIPLVPSPK
B41: YHR109W 353-366 (peptide)
chain: EFDMLLLPFIPSID
B42: YKL083W 42-55 (peptide)
chain: FLPVFNLPSNPALF
B43: YDR390C 147-160 (peptide)
chain: GFDGYMQPIIPGKT
B44: YOR108W 386-399 (peptide)
chain: GETRWRIPYLPLDP
B45: YNL278W 118-131 (peptide)
chain: ELAEFTDPSSPVSE
B46: YFL034W 1020-1033 (peptide)
chain: GESHYKPPSTPKIN
B47: YEL070W 20-33 (peptide)
chain: FESTLPIPTYPREG
B48: YNL104C 387-400 (peptide)
chain: GETQWRIPYLPLDP
B49: YDL196W 57-70 (peptide)
chain: FFFFHLSPSIPFWF
B50: YJL033W 477-490 (peptide)
chain: FAYSLGLPGAPKIK
B51: YIL156W 498-511 (peptide)
chain: EPPSWKPPDLPIRL
B52: YGR062C 88-101 (peptide)
chain: ELRKLVQPITPIIK
B53: YCR079W 210-223 (peptide)
chain: FLYPYDDPNAPIDE
B54: YER162C 705-718 (peptide)
chain: EARPYSEPSEPEDS
B55: YDL117W 176-189 (peptide)
chain: FEESMNNPLPPLPP
B56: YCR091W 173-186 (peptide)
chain: ELFTFDMPTDPSSF
B57: YEL031W 876-889 (peptide)
chain: EPIAHLFPPGPKNP
B58: YBR221C 343-356 (peptide)
chain: ELEDFAFPDTPTIV

Target: T1, Myo5 SH3 (MYO5_YEAST), Q04439
Test: SPOT array

| normalised SPOT signal, Boehringer light units (BLU); mean over the file's lines of this peptide | Binder |
| --- | --- |
| 70.2 | B1 |
| 294 | B2 |
| 128 | B3 |
| 114 | B4 |
| 125 | B5 |
| 830 | B6 |
| 81.6 | B7 |
| 0 | B8 |
| 222 | B9 |
| 146 | B10 |
| 760 | B11 |
| 1470 | B12 |
| 215 | B13 |
| 966 | B14 |
| 460 | B15 |
| 167 | B16 |
| 130 | B17 |
| 137 | B18 |
| 67.9 | B19 |
| 452 | B20 |

| normalised SPOT signal, Boehringer light units (BLU); mean over the file's lines of this peptide | Binder |
| --- | --- |
| 2770 | B21 |
| 153 | B22 |
| 57.4 | B23 |
| 257 | B24 |
| 122 | B25 |
| 202 | B26 |
| 271 | B27 |
| 279 | B28 |
| 310 | B29 |
| 121 | B30 |
| 130 | B31 |
| 1340 | B32 |
| 242 | B33 |
| 111 | B34 |
| 142 | B35 |
| 508 | B36 |
| 61.8 | B37 |
| 62.7 | B38 |
| 397 | B39 |
| 75.3 | B40 |

| normalised SPOT signal, Boehringer light units (BLU); mean over the file's lines of this peptide | Binder |
| --- | --- |
| 249 | B41 |
| 154 | B42 |
| 158 | B43 |
| 118 | B44 |
| 189 | B45 |
| 722 | B46 |
| 122 | B47 |
| 106 | B48 |
| 6490 | B49 |
| 75.8 | B50 |
| 87000 | B51 |
| 170 | B52 |
| 55.4 | B53 |
| 208 | B54 |
| 169 | B55 |
| 44.9 | B56 |
| 356 | B57 |
| 255 | B58 |
